Target: recombinant full-length NOE1–mScarlet-His (rat) (UniProt Q62609)
Test: SEC; FSEC, Superose 6 calibrated with mass markers; 5 nM full-length NOE1–mScarlet with 5–150 nM GluA4, or 1 nM with 1–100 nM CP-AMPARs; mScarlet fluorescence

Sequence of recombinant full-length NOE1–mScarlet-His (rat) (Q62609 25-485): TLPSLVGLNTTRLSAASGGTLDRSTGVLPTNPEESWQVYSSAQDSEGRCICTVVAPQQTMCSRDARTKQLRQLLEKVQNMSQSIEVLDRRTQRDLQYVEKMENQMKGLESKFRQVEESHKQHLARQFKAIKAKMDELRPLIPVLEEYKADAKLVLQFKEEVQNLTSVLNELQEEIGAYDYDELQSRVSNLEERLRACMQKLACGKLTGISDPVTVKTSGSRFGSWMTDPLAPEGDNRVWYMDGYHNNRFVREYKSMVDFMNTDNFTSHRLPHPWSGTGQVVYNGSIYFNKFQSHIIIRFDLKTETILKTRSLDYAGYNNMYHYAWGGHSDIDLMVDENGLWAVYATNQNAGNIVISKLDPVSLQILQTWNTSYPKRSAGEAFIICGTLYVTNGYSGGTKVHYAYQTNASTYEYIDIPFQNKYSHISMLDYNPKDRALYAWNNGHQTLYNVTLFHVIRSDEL

Work on “native GluA1-containing CP-AMPARs purified from rat cerebellum (from UniProt P19490 19-907; P19493 21-902) (complex)” yielded a stoichiometry N (receptors per NOE1 tetramer) of 2.

Reference: paper PMC12422955
